Laboratory results published in FireProtDB (doi:10.1182/blood-2007-11-122457).

Conditions: Homo sapiens; pH 7.4; Thermal; DSC; Sodium phosphate 10mM; NaCl 130 mM; transition: 2; reversible: yes; structure 1OWA

Row | Substance | Tm [°C] | change of melting temperature, mutant - wild type (higher = more stable) [°C]
1 | Spectrin alpha chain, erythrocytic 1, P02549 R45T | 54.6 | 0
2 | Spectrin alpha chain, erythrocytic 1, P02549 R28S | 53.3 | -1.3
3 | Spectrin alpha chain, erythrocytic 1, P02549 V31A | 54.5 | -0.1
4 | Spectrin alpha chain, erythrocytic 1, P02549 L49F | 55.4 | 0.8
5 | Spectrin alpha chain, erythrocytic 1, P02549 G46V | 52.8 | -1.8
6 | Spectrin alpha chain, erythrocytic 1, P02549 R28H | 53.6 | -1
7 | Spectrin alpha chain, erythrocytic 1, P02549 I24S | 53.2 | -1.4
8 | Spectrin alpha chain, erythrocytic 1, P02549 K48R | 54.7 | 0.1
9 | Spectrin alpha chain, erythrocytic 1, P02549 R45S | 55.1 | 0.5
10 | Spectrin alpha chain, erythrocytic 1, P02549 R34W | 49.1 | -5.5
11 | Spectrin alpha chain, erythrocytic 1, P02549 I24T | 54.4 | -0.2
12 | Spectrin alpha chain, erythrocytic 1, P02549 R28L | 53.1 | -1.5
